# Target: human plasma-derived Factor IXa (human, UniProt P00740 47-191; P00740 227-461)
# Experiment: cell-based or functional assay
# human plasma-derived Factor IXa, sequence (P00740 47-191, chain 1 of 2): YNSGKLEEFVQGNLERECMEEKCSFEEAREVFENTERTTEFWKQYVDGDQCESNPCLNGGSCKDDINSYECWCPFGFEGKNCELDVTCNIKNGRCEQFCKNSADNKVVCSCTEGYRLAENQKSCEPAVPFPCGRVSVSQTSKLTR
# human plasma-derived Factor IXa, sequence (P00740 227-461, chain 2 of 2): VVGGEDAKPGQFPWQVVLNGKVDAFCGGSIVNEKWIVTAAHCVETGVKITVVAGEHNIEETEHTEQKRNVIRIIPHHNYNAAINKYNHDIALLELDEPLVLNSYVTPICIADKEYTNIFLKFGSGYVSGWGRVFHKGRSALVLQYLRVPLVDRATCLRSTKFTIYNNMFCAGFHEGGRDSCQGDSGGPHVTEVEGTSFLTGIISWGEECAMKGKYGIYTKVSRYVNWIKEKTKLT
Binder,"Stimulation Index, FXa generation assay, 800 nM OA antibody",also measured
"one-armed (OA) mAb11-1091 (antibody, V domains shown) VH: EVQLVESGGGLVQPGRSLKLSCAASGFTFHDYAMHWVRQVPGKGLEWVSGISWKGDIGGYVDSVKGRFTISRDNAKNSLYLQMNSLRAEDTALYYCAKSYGSGSFYNAFDSWGQGTLVTVSS VL: DIQMTQSPSTLSASVGDRVTITCRASQSISSWLAWYQQKPGKAPKFLIYKASKLDRGTPSRFSGSGSGTEFTLTISSLQPDDFATYYCLEYSSYIRTFGQGTKVEIK",5400 fold,–
"one-armed (OA) mAb11-1204 (antibody, V domains shown) VH: EVQLVESGGGLVQPGRSLRLSCAASGFTFHDYAMHWVRQVPGKGLEWVSGISWRGDIGGYVKSVKGRFTISRDNAKNSLYLQMNSLRAEDTALYYCVKSYGSGSFYNAFDSWGQGTLVTVSS VL: DIQMTQSPSTLSASVGDEVTITCRASQSISSWLAWYQQKPGKAPKFLIYKASKLERGTPSRFSGSGSGTEFSLTISSLQPDDFATYYCLEYSSYIRTFGQGTKVEIK",–,"Stimulation Index, FXa generation assay, 1600 nM OA antibody: 9100 fold"
"one-armed (OA) mAb11-1094 (antibody, V domains shown) VH: EVQLVESGGGLVQPGRSLKLSCAASGFTFHDYAMHWVRQVPGKGLEWVSGISWKGDIGGYVDSVKGRFTISRDNAKNSLYLQMNSLRAEDTALYYCAKSYGSGSFYNAFDSWGQGTLVTVSS VL: DIQMTQSPSTLSASVGDRVTITCRASQSISSWLAWYQQKPGKAPKFLIYKASKLERGTPSRFSGSGSGTEFTLTISSLQPDDFATYYCLEYSSYIRTFGQGTKVEIK",4080 fold,–
"one-armed (OA) mAb11-1254 (antibody, V domains shown) VH: EVQLVESGGGLVQPGRSLRLSCAASGFTFHDYAMHWVRQVPGKGLEWVSGISWKGDIGGYVDSVKGRFTISRDNDKNSLYLQMNSLRAEDTALYYCVKSYGSGSFYNAFDSWGQGTLVTVSS VL: DIQMTQSPSTLSASVGDRVTITCRASQSISSWLAWYQQKPGKAPKFLIYKASRLDRGTPSRFSGSGSGTEFSLTISSLQPDDFATYYCLEYSSYIRTFGQGTKVEIK",–,"Stimulation Index, FXa generation assay, 760 nM OA antibody: 1890 fold"
"one-armed (OA) mAb11-1259 (antibody, V domains shown) VH: EVQLVESGGGLVQPGRSLRLSCAASGFTFHDYAMHWVRQVPGKGLEWVSGISWKGDIGGYVDSVKGRFTISRDNEKNSLYLQMNSLRAEDTALYYCVKSYGSGSFYNAFDSWGQGTLVTVSS VL: DIQMTQSPSTLSASVGDRVTITCRASQKISSWLAWYQQKPGKAPKFLIYKASRLDRGTPSRFSGSGSGTEFSLTISSLQPDDFATYYCLEYSSYIRTFGQGTKVEIK",2000 fold,–
"one-armed (OA) mAb11-1262 (antibody, V domains shown) VH: EVQLVESGGGLVQPGRSLRLSCAASGFTFHDYAMHWVRQVPGKGLEWVSGISWKGDIGGYVDSVKGRFTISRDNEKNSLYLQMNSLRAEDTALYYCVKSYGSGSFYNAFDSWGQGTLVTVSS VL: DIQMTQSPSTLSASVGDRVTITCRASQSIQSWLAWYQQKPGKAPKFLIYKASRLDRGTPSRFSGSGSGTEFSLTISSLQPDDFATYYCLEYSSYIRTFGQGTKVEIK",1950 fold,–
"one-armed (OA) mAb01-9696 (antibody, V domains shown) VH: EVQLVESGGGLVQPGRSLKLSCAASGFTFDDYAMHWVRQVPGKGLEWVSGISWRGDIGGYVDSVKGRFTISRDNAKNSLYLQLNSLRAEDTALYYCVKSYGSGSFYNAFDSWGQGTLVTVSS VL: DIQMTQSPSTLSASAGDRVTITCRASQSISSWLAWYQQKPGKAPKFLIYKASRLDRGTPSRFSGSGSGTEFSLTISSLQPDDFATYYCLEYSSYIRTFGQGTKVEIK",–,"Stimulation Index, FXa generation assay, 1600 nM OA antibody: 5170 fold"
"one-armed (OA) mAb11-1260 (antibody, V domains shown) VH: EVQLVESGGGLVQPGRSLRLSCAASGFTFHDYAMHWVRQVPGKGLEWVSGISWKGDIGGYVDSVKGRFTISRDNEKNSLYLQMNSLRAEDTALYYCVKSYGSGSFYNAFDSWGQGTLVTVSS VL: DIQMTQSPSTLSASVGDRVTITCRASQQISSWLAWYQQKPGKAPKFLIYKASRLDRGTPSRFSGSGSGTEFSLTISSLQPDDFATYYCLEYSSYIRTFGQGTKVEIK",1760 fold,–
"one-armed (OA) mAb11-1233 (antibody, V domains shown) VH: EVQLVESGGGLVQPGRSLRLSCAASGFKFHDYAMHWVRQVPGKGLEWVSGISWKGDIGGYVDSVKGRFTISRDNEKNSLYLQMNSLRAEDTALYYCVKSYGSGSFYNAFDSWGQGTLVTVSS VL: DIQMTQSPSTLSASVGDRVTITCRASQSISSWLAWYQQKPGKAPKFLIYKASRLDRGTPSRFSGSGSGTEFSLTISSLQPDDFATYYCLEYSSYIRTFGQGTKVEIK",1700 fold,–

# Now from value to binder, other results behind:
"Stimulation Index, FXa generation assay, 800 nM OA antibody",Binder,also measured
1540 fold,"one-armed (OA) mAb11-1273 (antibody, V domains shown) VH: EVQLVESGGGLVQPGRSLRLSCAASGFTFHDYAMHWVRQVPGKGLEWVSGISWKGDIGGYVDSVKGRFTISRDNEKNSLYLQMNSLRAEDTALYYCVKSYGSGSFYNAFDSWGQGTLVTVSS VL: DIQMTQSPSTLSASVGDRVTITCRASQSISSWLAWYQQKPGKAPKFLIYKASRLDRGTPSRFSGSGSGTEFSLTISELQPDDFATYYCLEYSSYIRTFGQGTKVEIK",–
1740 fold,"one-armed (OA) mAb11-1276 (antibody, V domains shown) VH: EVQLVESGGGLVQPGRSLRLSCAASGFTFHDYAMHWVRQVPGKGLEWVSGISWKGDIGGYVDSVKGRFTISRDNEKNSLYLQMNSLRAEDTALYYCVKSYGSGSFYNAFDSWGQGTLVTVSS VL: DIQMTQSPSTLSASVGDRVTITCRASQSISSWLAWYQQKPGKAPKFLIYKASRLDRGTPSRFSGSGSGTEFSLTISSLSPDDFATYYCLEYSSYIRTFGQGTKVEIK",–
2830 fold,"one-armed (OA) mAb11-1358 (antibody, V domains shown) VH: EVQLVESGGGLVQPGRSLKLSCAASGFTFDDYAMHWVRQVPGKGLEWVSGISWRGDIGGYVDSVKGRFTISRDNAKNSLYLQLNSLRAEDTALYYCVKSYGSGSFYNAFDSWGQGTLVTVSS VL: DIQMTQSPSTLSASAGDRVTITCRASQSISSWLAWYQQKPGKAPKFLIYKASKLDRGTPSRFSGSGSGTEFSLTISSLQPDDFATYYCLEYSSYIRTFGQGTKVEIK",–
1840 fold,"one-armed (OA) mAb11-1275 (antibody, V domains shown) VH: EVQLVESGGGLVQPGRSLRLSCAASGFTFHDYAMHWVRQVPGKGLEWVSGISWKGDIGGYVDSVKGRFTISRDNEKNSLYLQMNSLRAEDTALYYCVKSYGSGSFYNAFDSWGQGTLVTVSS VL: DIQMTQSPSTLSASVGDRVTITCRASQSISSWLAWYQQKPGKAPKFLIYKASRLDRGTPSRFSGSGSGTEFSLTISSLTPDDFATYYCLEYSSYIRTFGQGTKVEIK",–
4660 fold,"one-armed (OA) mAb11-1344 (antibody, V domains shown) VH: EVQLVESGGGLVQPGRSLKLSCAASGFTFDDYAMHWVRQVPGKGLEWVSGISWKGDIGGYVDSVKGRFTISRDNAKNSLYLQLNSLRAEDTALYYCAKSYGSGSFYNAFDSWGQGTLVTVSS VL: DIQMTQSPSTLSASAGDRVTITCRASQSISSWLAWYQQKPGKAPKFLIYKASKLDRGTPSRFSGSGSGTEFSLTISSLQPDDFATYYCLEYSSYIRTFGQGTKVEIK",–
1800 fold,"one-armed (OA) mAb11-1268 (antibody, V domains shown) VH: EVQLVESGGGLVQPGRSLRLSCAASGFTFHDYAMHWVRQVPGKGLEWVSGISWKGDIGGYVDSVKGRFTISRDNEKNSLYLQMNSLRAEDTALYYCVKSYGSGSFYNAFDSWGQGTLVTVSS VL: DIQMTQSPSTLSASVGDRVTITCRASQSISSWLAWYQQKPGKAPKFLIYKASRLDRGTPKRFSGSGSGTEFSLTISSLQPDDFATYYCLEYSSYIRTFGQGTKVEIK",–
1820 fold,"one-armed (OA) mAb11-1286 (antibody, V domains shown) VH: EVQLVESGGGLVQPGRSLRLSCAASGFTFHDYAMHWVRQVPGKGLEWVSGISWKGDIGGYVDSVKGRFTISRDNEKNSLYLQMNSLRAEDTALYYCVKSYGSGSFYNAFDSWGQGTLVTVSS VL: DIQMTQSPSTLSASVGDRVTITCRASQSISSWLAWYQQKPGKAPKFLIYKASRLDRGTPSRFSGSGSGTEFSLTIYDLQPDDFATYYCLEYRSYIRTFGQGTKVEIK",–
1560 fold,"one-armed (OA) mAb11-1279 (antibody, V domains shown) VH: EVQLVESGGGLVQPGRSLRLSCAASGFTFHDYAMHWVRQVPGKGLEWVSGISWKGDIGGYVDSVKGRFTISRDNEKNSLYLQMNSLRAEDTALYYCVKSYGSGSFYNAFDSWGQGTLVTVSS VL: DIQMTQSPSTLSASVGDRVTITCRASQSISSWLAWYQQKPGKAPKFLIYKASRLDRGTPSRFSGSGSGTEFSLTISSLQPDDFATYYCLEYKSYIRTFGQGTKVEIK",–
1690 fold,"one-armed (OA) mAb11-1278 (antibody, V domains shown) VH: EVQLVESGGGLVQPGRSLRLSCAASGFTFHDYAMHWVRQVPGKGLEWVSGISWKGDIGGYVDSVKGRFTISRDNEKNSLYLQMNSLRAEDTALYYCVKSYGSGSFYNAFDSWGQGTLVTVSS VL: DIQMTQSPSTLSASVGDRVTITCRASQSISSWLAWYQQKPGKAPKFLIYKASRLDRGTPSRFSGSGSGTEFSLTISSLQPDDFATYYCLEYQSYIRTFGQGTKVEIK",–
1700 fold,"one-armed (OA) mAb11-1266 (antibody, V domains shown) VH: EVQLVESGGGLVQPGRSLRLSCAASGFTFHDYAMHWVRQVPGKGLEWVSGISWKGDIGGYVDSVKGRFTISRDNEKNSLYLQMNSLRAEDTALYYCVKSYGSGSFYNAFDSWGQGTLVTVSS VL: DIQMTQSPSTLSASVGDRVTITCRASQSISSWLAWYQQKPGKAPKFLIYKASRLDKGTPSRFSGSGSGTEFSLTISSLQPDDFATYYCLEYSSYIRTFGQGTKVEIK",–
1460 fold,"one-armed (OA) mAb11-1282 (antibody, V domains shown) VH: EVQLVESGGGLVQPGRSLRLSCAASGFTFHDYAMHWVRQVPGKGLEWVSGISWKGDIGGYVDSVKGRFTISRDNEKNSLYLQMNSLRAEDTALYYCVKSYGSGSFYNAFDSWGQGTLVTVSS VL: DIQMTQSPSTLSASVGDRVTITCRASQSISSWLAWYQQKPGKAPKFLIYKASRLDRGTPSRFSGSGSGTEFSLTISSLQPDDFATYYCLEYSSWIRTFGQGTKVEIK",–
2530 fold,"one-armed (OA) mAb11-1288 (antibody, V domains shown) VH: EVQLVESGGGLVQPGRSLRLSCAASGFTFHDYAMHWVRQVPGKGLEWVSGISWKGDIGGYVDSVKGRFTISRDNEKNSLYLQMNSLRAEDTALYYCVKSYGSGSFYNAFDSWGQGTLVTVSS VL: DIQMTQSPSTLSASVGDRVTITCRASQSISSWLAWYQQKPGKAPKFLIYKASRLDRGTPQRFSGSGSGTEFSLTIYSLQPDDFATYYCLEYNSYIRTFGQGTKVEIK",–

# Source: patent US20260193376A1 (Novo Nordisk, published 2026)
